Measured values reported in patent US20250051455A1 (Hoffmann-La Roche, published 2025).

What was measured:
[1] = target: T1, recombinant soluble human HLA-G β2M MHC class I complex, monomer (human); assay: blocking ELISA on biotinylated wt HLA-G; competitor ILT-4
T1 construct: His tagged; biotinylated where coated on streptavidin plates, non-biotinylated in SPR; also called HLA-G-0003; wt HLA-G (monomer)

[2] = target: T1, recombinant soluble human HLA-G β2M MHC …; assay: ELISA, biotinylated wt HLA-G monomer on streptavidin plate
Method: (§1) Streptavidin coated plates (Nunc, MicroCoat #11974998001) were coated with 25 μl/well biotinylated human wt HLA-G at a concentration of 250 ng/ml and incubated at 4° C. overnight. After washing (3×90 μl/well with PBST-buffer) 25 μl anti-HLA-G samples (1:3 dilution in OSEP buffer) or reference antibody (G233, Thermo/Pierce #MA1-19449, 500 ng/ml) were added and incubated 1 h at RT. After washing (3×90 μl/well with PBST-buffer) 25 μl/well goat-anti-mouse H+L-POD (Biorad #170-6561, 1:2000 in OSEP) or donkey-anti-rabbit IgG POD (GE #NA9340V, 1:5000 in OSE) was added and incubated at RT for 1 h on shaker. For detection of rat IgGs a mixture of goat-anti-rat IgG1-POD (Bethyl #A110-106P), goat-anti-rat IgG2a-POD (Bethyl #A110-109P) and goat-anti-rat IgG2b-POD (Bethyl #A110-111P) 1:10000 in OSEP was added and incubated at RT for 1 h on shaker. After washing (6×90 μl/well with PBST-buffer) 25 μl/well TMB substrate (Roche, 11835033001) was added and incubated until OD 2-3. Measurement took place on a Tecan Safire 2 instrument at 370/492 nm.
The above table summarizes the binding of different rat anti-human HLA-G monoclonal antibodies, derived from wt protein IMS. Shown are the relative EC50 values [ng/ml] of the respective binding to rec. wt monomeric, dimeric and trimeric HLA-G proteins as assessed by ELISA. The ELISA was set up by coating the biotinylated wt HLA-G antigen to strepdavidin plates. After incubation and washing steps, the respective antibodies were bound in a concentration range from 10-0 μg in 1:2 dilution steps. Detection of bound antibodies was carried out by anti-Fc-antibody-POD conjugates. EC50 values were determined from the resulting binding curves at the antibody concentrations generating the half-maximal signal. In case of the non-biotinylated HLA-G dimer and trimer antigens, immobilization was carried out by random coating on assay plates.

[3] = target: T1, recombinant soluble human HLA-G β2M MHC …; assay: competition ELISA, one antibody concentration; competitor coated ILT4-Fc
Method: (§2) The ELISA was set up by coating the Fc tagged ILT2 and ILT4 respectively to Maxisorp microtiter plates. After incubation and washing steps, the respective antibodies were added at a concentration of 100 nM. Soluble His tagged monomeric, dimeric or trimeric HLA-G was added to the wells. After incubation and washing steps, detection of bound receptor was carried out by anti-His-antibody-POD conjugates.
(§3) The above tables summarize the blocking of interaction between rec. HLA-G proteins (monomer and oligomers) to its receptors ILT2 and ILT4 by the described HLAG antibodies at a concentration of 110 nM (*HLAG-0090 was tested at a concentration of 44 nM) as assessed by ELISA. Shown are the % inhibitions of the HLA-G/receptor interaction (for ILT2 and ILT4). The less pronounced ILT4 inhibition depends on the major β2M dependent interaction of this receptor.

[4] = target: T2, recombinant soluble human HLA-G β2M MHC class I complex, trimer (human); assay: as above
T2 construct: Non-biotinylated; also called HLA-G Trimer; trimeric HLA-G
Method: as §2, §3

[5] = target: T3, recombinant soluble human HLA-G β2M MHC class I complex, dimer (human); assay: as above
T3 construct: Non-biotinylated; also called HLA-G Dimer; dimeric HLA-G
Method: as §2, §3

[6] = target: T1, recombinant soluble human HLA-G β2M MHC …; assay: ELISA (EC50 rel), biotinylated wt HLA-G monomer on streptavidin plate
Method: as §1
(§4) The above table summarizes the binding of different rat anti-human HLA-G monoclonal antibodies, derived from wt protein IMS both of wt as well as OMT rats. Shown are the relative EC50 values [ng/ml] and maximal OD of the respective binding to rec. wt monomeric HLA-G protein or the socalled gegrafted HLA-G (HLA-A consensus sequence on HLA-G backbone) protein as assessed by ELISA. The ELISA was set up by coating the biotinylated wt HLA-G or consensus antigen to strepdavidin plates. After incubation and washing steps, the respective antibodies were bound in a concentration range from 10-0 μg in 1:2 dilution steps. Detection of bound antibodies was carried out by anti-Fc-antibody-POD conjugates. EC50 values were determined from the resulting binding curves at the antibody concentrations generating the half-maximal signal.

[7] = target: T1, recombinant soluble human HLA-G β2M MHC …; assay: ELISA, biotinylated wt HLA-G monomer on streptavidin plate; remark: listed apart in the source
Method: as §1, §4

[8] = target: T4, modified human HLA-G β2M MHC class I complex (HLA-G specific amino acids replaced by HLA-A consensus amino … (human)); assay: ELISA, biotinylated degrafted HLA-G on streptavidin plate
T4 construct: Counter antigen: single-chain fusion of peptide, beta-2 microglobulin and HLA-G in which 14 HLA-G unique surface positions were mutated to an HLA-A consensus; also called degrafted HLA-G; HLA-G-0007
Method: as §1, with “degrafted” for “wt”, “rat serum (1:600 dilution in OSEP)” for “reference antibody (G233, Thermo/Pierce #MA1-19449, 500 ng/ml)”, “μl/well” for “μl/well goat-anti-mouse H+L-POD (Biorad #170-6561, 1:2000 in OSEP) or donkey-anti-rabbit IgG POD (GE #NA9340V, 1:5000 in OSE) was added and incubated at RT for 1 h on shaker. For detection”, “of” for “of rat IgGs”
as §4

[9] = target: human HLA-G expressed on cells (JEG3 natural; SKOV3 HLA-G+ and PA-TU-8902 HLA-G+ transfectants) (human); assay: cell-based or functional assay

| % inh. ILT4 (3 µg/ml antibody) [1] | EC50 [2] | % inhibition of ILT4 binding [3] | % inhibition of ILT4 binding [4] | % inhibition of ILT4 binding [5] | EC50 [6] | Max. OD [7] | Max. OD [8] | % TNF release (restoration) by monocytes (different donor) co-cultured with JEG-3 wt cells, LPS; antibody 0.16 µg/ml [9] | % TNF release (restoration) by monocytes (different donor) co-cultured with JEG-3 wt cells, LPS; antibody 0.63 µg/ml [9] | % TNF release (restoration) by monocytes (different donor) co-cultured with JEG-3 wt cells, LPS; antibody 2.5 µg/ml [9] | % TNF release (restoration) by monocytes (different donor) co-cultured with JEG-3 wt cells, LPS; antibody 10 µg/ml [9] | Binder |
| --- | --- | --- | --- | --- | --- | --- | --- | --- | --- | --- | --- | --- |
| 23.9% | 7.35 nM | -224% | -43% | -105% | 7.35 ng/mL | 1.4 OD | 0.13 OD | – | – | – | – | HLA-G-0039 (antibody, V domains shown, Human antibody from humanized OmniRat (OMT) rats) VH: EVQLLESGGGLVQPGGSLRLSCAASGFTFSSYAMNWVRQAPGKGLEWVSVISGSGVSTYYADSVKGRFTISRDNSRNTLSLQMNSLRAEDTAVYYCAKDGSYNYGYGDYFDYWGQGTLVTVSS VL: not shown |
| 18.4% | 4.95 nM | -184% | -39% | -113% | 8.6 ng/mL | 2.3 OD | 0.15 OD | 44% | 66% | 59% | 40% | HLA-G-0041 (antibody, V domains shown, Human antibody from humanized OmniRat (OMT) rats) VH: EVQLLESGGGLVQPGGSLRLSCAASGFTFSTYGMSWVRQAPGKGLEWVSVISGGGVSTYYADSVKGRFTISRDNSKNTLYLQMNRLRAEDTAVYYCAKDGSYNYGYGDYFDYWGQGTLVTVSS VL: not shown |
| 39.8% | 7.19 nM | 17% | 68% | 54% | 7.19 ng/mL | 1.6 OD | 0.13 OD | 14% | 44% | 67% | 74% | HLA-G-0031 (antibody, V domains shown, Rat monoclonal antibody obtained from CD rats) VH: QVKLMQSGAALVKPGTSVKMSCNASGYTFTDYWVSWVKQSHGKRLEWVGEISPNSGASNFDENFKDKATLTVDKSTSTAYMELSRLTSEDSAIYYCTRSSHGSFRWFAYWGQGTLVTVSS VL: AIVLNQSPSSIVASQGEKVTITCRASSSVSSNHLHWYQQKPGAFPKFVIYSTSQRASGIPSRFSGSGSGTSYSFTISRVEAEDVATYYCQQGSSNPYTFGAGTKLELK |
| – | – | – | – | – | 10.4 ng/mL | 3.4 OD | 0.2 OD | 198% | 219% | 233% | 221% | HLA-G-0090 (antibody, V domains shown, Human antibody from humanized OmniRat (OMT) rats) VH: QVQLQQSGPGLLKPSQTLSLTCAISGDSVSSNRAAWNWIRQSPSRGLEWLGRTYYRSKWYNDYAVSVQGRITLIPDTSKNQFSLRLNSVTPEDTAVYYCASVRAVAPFDYWGQGVLVTVSS VL: not shown |
